Measured values from paper PMC10542384.

B1: HA-RNF111 wild type (HA-RNF111^WT) in RNF111 KO U2OS cells [not stated] / Arkadia-like 1 (ARKL1) [human (endogenous in U2OS)] (parent)
chain 1: MSQWTPEYNELYTLKVDMKSEIPSDAPKTQESLKGILLHPEPIGAAKSFPAGVEMINSKVGNEFSHLCDDSQKQEKEMNGNQQEQEKSLVVRKKRKSQQAGPSYVQNCVKENQGILGLRQHLGTPSDEDNDSSFSDCLSSPSSSLHFGDSDTVTSDEDKEVSVRHSQTILNAKSRSHSARSHKWPRTETESVSGLLMKRPCLHGSSLRRLPCRKRFVKNNSSQRTQKQKERILMQRKKREVLARRKYALLPSSSSSSENDLSSESSSSSSTEGEEDLFVSASENHQNNPAVPSGSIDEDVVVIEASSTPQVTANEEINVTSTDSEVEIVTVGESYRSRSTLGHSRSHWSQGSSSHASRPQEPRNRSRISTVIQPLRQNAAEVVDLTVDEDEPTVVPTTSARMESQATSASINNSNPSTSEQASDTASAVTSSQPSTVSETSATLTSNSTTGTSIGDDSRRTTSSAVTETGPPAMPRLPSCCPQHSPCGGSSQNHHALGHPHTSCFQQHGHHFQHHHHHHHTPHPAVPVSPSFSDPACPVERPPQVQAPCGANSSSGTSYHEQQALPVDLSNSGIRSHGSGSFHGASAFDPCCPVSSSRAAIFGHQAAAAAPSQPLSSIDGYGSSMVAQPQPQPPPQPSLSSCRHYMPPPYASLTRPLHHQASACPHSHGNPPPQTQPPPQVDYVIPHPVHAFHSQISSHATSHPVAPPPPTHLASTAAPIPQHLPPTHQPISHHIPATAPPAQRLHPHEVMQRMEVQRRRMMQHPTRAHERPPPHPHRMHPNYGHGHHIHVPQTMSSHPRQAPERSAWELGIEAGVTAATYTPGALHPHLAHYHAPPRLHHLQLGALPLMVPDMAGYPHIRYISSGLDGTSFRGPFRGNFEELIHLEERLGNVNRGASQGTIERCTYPHKYKKVTTDWFSQRKLHCKQDGEEGTEEDTEEKCTICLSILEEGEDVRRLPCMHLFHQVCVDQWLITNKKCPICRVDIEAQLPSES
chain 2: MKMEEAVGKVEELIESEAPPKASEQETAKEEDGSVELESQVQKDGVADSTVISSMPCLLMELRRDSSESQLASTESDKPTTGRVYESDSSNHCMLSPSSSGHLADSDTLSSAEENEPSQAETAVEGDPSGVSGATVGRKSRRSRSESETSTMAAKKNRQSSDKQNGRVAKVKGHRSQKHKERIRLLRQKREAAARKKYNLLQDSSTSDSDLTCDSSTSSSDDDEEVSGSSKTITAEIPDGPPVVAHYDMSDTNSDPEVVNVDNLLAAAVVQEHSNSVGGQDTGATWRTSGLLEELNAEAGHLDPGFLASDKTSAGNAPLNEEINIASSDSEVEIVGVQEHARCVHPRGGVIQSVSSWKHGSGTQYVSTRQTQSWTAVTPQQTWASPAEVVDLTLDEDSRRKYLL

Variants of: B1
Assay: proximity ligation assay (PLA)
Settings: with Arkadia-like 1 (ARKL1) [human (endogenous in U2OS)]; RNF111 KO U2OS cells complemented with vector (n = 19), HA-RNF111WT (n = 18), HA-RNF111 K237/238R (n = 28); antibodies to HA and ARKL1; parent: 7.5; read off a plot

| response (PLA foci per cell) | Variant |
| --- | --- |
| 3.2 | chain 1 K237R K238R |
